This is an account of results in patent US20060229240A1 (GARDELL ET AL, published 2006).

Like-named read-outs stand apart in the source and are kept apart here. Positions of bridges follow the written chain, without caps; N, C: chain ends. Non-standard residues stand in square brackets, D forms with d. No end group written: not given here. hArg = N=C(N)NCCCC[C@H](N)C(=O)O; Aib = CC(C)(N)C(=O)O

For assay [1], the target named is T1, PTH/PTHrP receptor (P1R), wild-type, full-length (human, UniProt Q03431 27-593).
T1 sequence (looked up): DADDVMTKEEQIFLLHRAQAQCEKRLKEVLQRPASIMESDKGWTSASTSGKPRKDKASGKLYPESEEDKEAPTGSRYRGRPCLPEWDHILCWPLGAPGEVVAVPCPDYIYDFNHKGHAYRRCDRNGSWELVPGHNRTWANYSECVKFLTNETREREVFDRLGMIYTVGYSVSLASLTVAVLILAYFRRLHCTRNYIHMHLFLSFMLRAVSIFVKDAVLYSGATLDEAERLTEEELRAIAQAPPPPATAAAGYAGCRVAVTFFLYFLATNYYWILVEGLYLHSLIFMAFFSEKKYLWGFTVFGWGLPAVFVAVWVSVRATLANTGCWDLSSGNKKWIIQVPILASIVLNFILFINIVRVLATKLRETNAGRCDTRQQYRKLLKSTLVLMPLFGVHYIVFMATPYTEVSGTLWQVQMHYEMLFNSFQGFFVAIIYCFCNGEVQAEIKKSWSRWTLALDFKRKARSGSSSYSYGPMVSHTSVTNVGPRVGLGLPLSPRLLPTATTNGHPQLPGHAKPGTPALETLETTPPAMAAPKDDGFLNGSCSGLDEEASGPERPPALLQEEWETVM
Briefly: cell-based or functional assay.

Assay [2] addresses T2, P1R-DelNt (truncated human P1R deleted for residues 24-181) (human, UniProt Q03431 182-593).
T2 sequence (looked up): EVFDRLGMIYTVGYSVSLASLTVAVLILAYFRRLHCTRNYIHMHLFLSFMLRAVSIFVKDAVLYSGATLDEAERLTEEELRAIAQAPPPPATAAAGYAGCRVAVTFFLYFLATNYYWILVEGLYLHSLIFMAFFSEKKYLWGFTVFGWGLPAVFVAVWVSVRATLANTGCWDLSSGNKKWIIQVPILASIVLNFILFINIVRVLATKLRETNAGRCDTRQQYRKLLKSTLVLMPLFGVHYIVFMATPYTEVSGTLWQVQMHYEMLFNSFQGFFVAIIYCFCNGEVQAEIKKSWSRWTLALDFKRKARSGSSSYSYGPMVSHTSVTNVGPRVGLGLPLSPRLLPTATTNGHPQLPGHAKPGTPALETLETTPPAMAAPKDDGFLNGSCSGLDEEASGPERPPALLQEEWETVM
Put plainly: cell-based or functional assay.

The target of assay [3] is T1, PTH/PTHrP receptor (P1R), wild-type, …. Put plainly: cell-based or functional assay. This is another data set of the same source.
The target is the same in assay [4]. Put plainly: competition with 125I-[Ala3,12,Gln10,Har11,Trp14,Arg19,Tyr21]PTH(1-21)-amide tracer on HKRK-B28 cells expressing P1R. How it is done:
Competition Binding. Binding reactions were performed with […] cells or in COS-7 cells in 24-well plates. The cells were rinsed with 0.5 mL of binding buffer, and then treated successively with 100 μL binding buffer, 100 μL of binding buffer containing various amounts of unlabeled competitor ligand, and 100 μL of binding buffer containing ca. 100,000 cpm of ¹²⁵I-[M]PTH(1-21)(SEQ. ID. NO. 16) or ¹²⁵I-[Aib^{1,3},M]PTH(1-21)(SEQ. ID. NO. 17) (ca. 26 fmol; final volume=300 μL). Incubations were 4 to 6 h at 4° C., at which time near equilibrium conditions were attained. Cells were then placed on ice, the binding medium was removed, and the monolayer was rinsed three times with 0.5 mL of cold binding buffer. The cells were subsequently lysed with 0.5 mL 5N NaOH and counted for radioactivity. For each tracer and in each experiment, the non-specific binding was determined as the radioactivity that bound in the presence of the same unlabeled peptide at a concentration of 1 μM, and was ˜1% of total radioactivity added for each tracer. The maximum specific binding (B₀) was the total radioactivity bound in the absence of competing ligand, corrected for nonspecific binding, and for each tracer, ranged from 8% to 20% of the total radioactivity added. Nonlinear regression was used to calculate binding IC₅₀ values (see below). Scatchard transformations of homologous competition binding data derived from studies with 26 fmol of ¹²⁵I-[Aib^{1,3},M]PTH(1-21) (SEQ. ID. NO. 17) were employed for estimations of apparent equilibrium dissociation constant (kDapps) and total number of ligand binding sites (Bₘₐₓ), assuming a single class of binding sites and equal affinities of the iodinated and non iodinated ligand.
The peptide PTH(1-34) ([Tyr³⁴]bPTH(1-34)NH₂) (SEQ. ID. NO. 10) and analogs containing substitutions at positions 6 and/or 10 in place of Gln and Asn, respectively, were evaluated in HKRK-B28 cells for the capacity to stimulate cAMP accumulation, and to inhibit the binding of ¹²⁵I-[Ala^{3,12}, Gln¹⁰, Har¹¹, Trp¹⁴,Arg¹⁹, Tyr²¹]PTH(1-21)-amide (SEQ. ID. NO. 30) tracer radioligand.

Assay [5] shares this target. Briefly: cell-based or functional assay. This is another data set of the same source.
The target of assay [6] is T2, P1R-DelNt (truncated human P1R deleted …). Briefly: cell-based or functional assay. The source holds these as a separate data set.
Assay [7] has as its target T1, PTH/PTHrP receptor (P1R), wild-type, …. Briefly: cell-based or functional assay. The source holds these as a separate data set.

B1: [Glu^6, Lys^10]PTH(1-14) (linear) (peptide)
peptide: AVAEIELMHK[hArg]AKW-NH2
modifications: N-terminus assumed
SMILES: CC[C@H](C)[C@H](NC(=O)[C@H](CCC(=O)O)NC(=O)[C@H](C)NC(=O)[C@@H](NC(=O)[C@H](C)N)C(C)C)C(=O)N[C@@H](CCC(=O)O)C(=O)N[C@@H](CC(C)C)C(=O)N[C@@H](CCSC)C(=O)N[C@@H](Cc1c[nH]cn1)C(=O)N[C@@H](CCCCN)C(=O)N[C@@H](CCCCNC(=N)N)C(=O)N[C@@H](C)C(=O)N[C@@H](CCCCN)C(=O)N[C@@H](Cc1c[nH]c2ccccc12)C(N)=O
Consider B1, for which, in assay [1], the “cAMP EC50” value was determined as 40 µM and the “cAMP Emax (%)” value was found to be 52%.
Take AVAEIALMHQR-NH2 [[Ala^6]PTH(1-11)]: in assay [2], the “cAMP EC50” value was 320 µM and the “cAMP Emax (%)” value came out at 14%. In assay [3], the “cAMP EC50” value came to 330 µM and the “cAMP Emax (%)” value came to 26%.

B2: PTH(1-34) ([Tyr^34]hPTH(1-34)amide) (peptide)
peptide: SVSEIQLMHNLGKHLNSMERVEWLRKKLQDVHNY-NH2
notes: Human PTH(1-34) analog with Tyr at 34; also called [Tyr^34]hPTH(1-34)NH2; PTH(1-34) scaffold peptide
What is called IC50 is the concentration at which inhibition is half-maximal. A high value points to weaker potency in that assay. Molecule B2 gave an IC50 in assay [4] of 6 µM. Besides, the “cAMP EC50” value in assay [5] stood at 0.27 µM; in assay [7], 1.9 µM. Moreover, the “cAMP Emax (%)” value in assay [5] was determined as 100%; in assay [6] it was 44%; in assay [7] it was 100%.

B3: [Aib^1,3, Ala^10]PTH(1-14) (peptide)
peptide: [Aib]V[Aib]EIQLMHA[hArg]AKW-NH2
modifications: N-terminus assumed
SMILES: CC[C@H](C)[C@H](NC(=O)[C@H](CCC(=O)O)NC(=O)C(C)(C)NC(=O)[C@@H](NC(=O)C(C)(C)N)C(C)C)C(=O)N[C@@H](CCC(N)=O)C(=O)N[C@@H](CC(C)C)C(=O)N[C@@H](CCSC)C(=O)N[C@@H](Cc1c[nH]cn1)C(=O)N[C@@H](C)C(=O)N[C@@H](CCCCNC(=N)N)C(=O)N[C@@H](C)C(=O)N[C@@H](CCCCN)C(=O)N[C@@H](Cc1c[nH]c2ccccc12)C(N)=O
As to B3, in assay [2], the “cAMP EC50” value turned out to be 0.081 µM and the “cAMP Emax (%)” value worked out at 104%.

B4: [M]PTH(1-14) ([Ala^1,3,12,Gln^10,Har^11,Trp^14]PTH(1-14)amide; AlaValAlaGluIleGlnLeuMetHisGlnHarAlaLysTrp-amide) (peptide)
peptide: AVAEIQLMHQ[hArg]AKW-NH2
modifications: N-terminus assumed
SMILES: CC[C@H](C)[C@H](NC(=O)[C@H](CCC(=O)O)NC(=O)[C@H](C)NC(=O)[C@@H](NC(=O)[C@H](C)N)C(C)C)C(=O)N[C@@H](CCC(N)=O)C(=O)N[C@@H](CC(C)C)C(=O)N[C@@H](CCSC)C(=O)N[C@@H](Cc1c[nH]cn1)C(=O)N[C@@H](CCC(N)=O)C(=O)N[C@@H](CCCCNC(=N)N)C(=O)N[C@@H](C)C(=O)N[C@@H](CCCCN)C(=O)N[C@@H](Cc1c[nH]c2ccccc12)C(N)=O
Consider B4, for which, in assay [1], the “cAMP EC50” value turned out to be 0.12 µM and the “cAMP Emax (%)” value worked out at 100%.

B5: [Aib^1,3, Ala^6]PTH(1-14) (peptide)
peptide: [Aib]V[Aib]EIALMHQ[hArg]AKW-NH2
modifications: N-terminus assumed
SMILES: CC[C@H](C)[C@H](NC(=O)[C@H](CCC(=O)O)NC(=O)C(C)(C)NC(=O)[C@@H](NC(=O)C(C)(C)N)C(C)C)C(=O)N[C@@H](C)C(=O)N[C@@H](CC(C)C)C(=O)N[C@@H](CCSC)C(=O)N[C@@H](Cc1c[nH]cn1)C(=O)N[C@@H](CCC(N)=O)C(=O)N[C@@H](CCCCNC(=N)N)C(=O)N[C@@H](C)C(=O)N[C@@H](CCCCN)C(=O)N[C@@H](Cc1c[nH]c2ccccc12)C(N)=O
Consider B5, for which, in assay [2], the “cAMP EC50” value was 0.146 µM and the “cAMP Emax (%)” value is 101%.

B6: [Lys^6, Glu^10]PTH(1-14) (peptide)
peptide: AVAEIKLMHE[hArg]AKW-NH2
modifications: N-terminus assumed
SMILES: CC[C@H](C)[C@H](NC(=O)[C@H](CCC(=O)O)NC(=O)[C@H](C)NC(=O)[C@@H](NC(=O)[C@H](C)N)C(C)C)C(=O)N[C@@H](CCCCN)C(=O)N[C@@H](CC(C)C)C(=O)N[C@@H](CCSC)C(=O)N[C@@H](Cc1c[nH]cn1)C(=O)N[C@@H](CCC(=O)O)C(=O)N[C@@H](CCCCNC(=N)N)C(=O)N[C@@H](C)C(=O)N[C@@H](CCCCN)C(=O)N[C@@H](Cc1c[nH]c2ccccc12)C(N)=O
Regarding B6, in assay [1], the “cAMP EC50” value was 130 µM and the “cAMP Emax (%)” value came to 37%.

B7: [Aib^1,3, Ala^6,10]PTH(1-14) (peptide)
peptide: [Aib]V[Aib]EIALMHA[hArg]AKW-NH2
modifications: N-terminus assumed
SMILES: CC[C@H](C)[C@H](NC(=O)[C@H](CCC(=O)O)NC(=O)C(C)(C)NC(=O)[C@@H](NC(=O)C(C)(C)N)C(C)C)C(=O)N[C@@H](C)C(=O)N[C@@H](CC(C)C)C(=O)N[C@@H](CCSC)C(=O)N[C@@H](Cc1c[nH]cn1)C(=O)N[C@@H](C)C(=O)N[C@@H](CCCCNC(=N)N)C(=O)N[C@@H](C)C(=O)N[C@@H](CCCCN)C(=O)N[C@@H](Cc1c[nH]c2ccccc12)C(N)=O
In the case of B7, in assay [2], the “cAMP EC50” value was found to be 0.024 µM and the “cAMP Emax (%)” value turned out to be 100%.

B8: [(Glu^6, Lys^10)lac.]PTH(1-14), cyclized via a 6-10 lactam bridge (peptide)
peptide: AVAEIELMHK[hArg]AKW-NH2
modifications: lactam 6-10; N-terminus assumed
SMILES: CC[C@H](C)[C@H](NC(=O)[C@H](CCC(=O)O)NC(=O)[C@H](C)NC(=O)[C@@H](NC(=O)[C@H](C)N)C(C)C)C(=O)N[C@H]1CCC(=O)NCCCC[C@@H](C(=O)N[C@@H](CCCCNC(=N)N)C(=O)N[C@@H](C)C(=O)N[C@@H](CCCCN)C(=O)N[C@@H](Cc2c[nH]c3ccccc23)C(N)=O)NC(=O)[C@H](Cc2c[nH]cn2)NC(=O)[C@H](CCSC)NC(=O)[C@H](CC(C)C)NC1=O
Consider B8, for which, in assay [1], the “cAMP EC50” value was 27 µM and the “cAMP Emax (%)” value came to 52%.
AVAEIALMHAR-NH2 [[Ala^6, Ala^10]PTH(1-11)]: in assay [2], the “cAMP EC50” value came to 170 µM and the “cAMP Emax (%)” value was found to be 42%. Also, in assay [3], the “cAMP EC50” value is 160 µM and the “cAMP Emax (%)” value came out at 41%.
AVAEIQLMHAR-NH2 [[Ala^10]PTH(1-11)]: in assay [2], the “cAMP EC50” value came to 39 µM and the “cAMP Emax (%)” value came to 79%. Also, in assay [3], the “cAMP EC50” value worked out at 11 µM and the “cAMP Emax (%)” value stood at 88%.
